Results taken from patent JP2007501612A (dated 2007).

Experiments:
[1] = molecular target: T1, mutant peptide Arg119His LDLSDNAQLHVVDPTT (rat); experiment: ELISA, peptide on MaxiSorp plate, serial dilution of 7E11
T1 peptide: LDLSDNAQLHVVDPTT

[2] = molecular target: T2, mutant peptide Gln117Ala LDLSDNAALRVVDPTT (rat); experiment: as above
T2 construct: also called Gla117Ala (so in the source)
T2 peptide: LDLSDNAALRVVDPTT

sNogoR344-Fc = molecular target: T3, sNogoR344-Fc (rat, UniProt Q99M75 26-344); experiment: SPA bead competition: inhibition of 125I-Nogo66 binding to immobilised sNogoR344-Fc
T3 construct: also called Fc-sNogoR344; Ig-sNogoR344; not shown: hinge region and Fc region of rat IgG1
T3 chain: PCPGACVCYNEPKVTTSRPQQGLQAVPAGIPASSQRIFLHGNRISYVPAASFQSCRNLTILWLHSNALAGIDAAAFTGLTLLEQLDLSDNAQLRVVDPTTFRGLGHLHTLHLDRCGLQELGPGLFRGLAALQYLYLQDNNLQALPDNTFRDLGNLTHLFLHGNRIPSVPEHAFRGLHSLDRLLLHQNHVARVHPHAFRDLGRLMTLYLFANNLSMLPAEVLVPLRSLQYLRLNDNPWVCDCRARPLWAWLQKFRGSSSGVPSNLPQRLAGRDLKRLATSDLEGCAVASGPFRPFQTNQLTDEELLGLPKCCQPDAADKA

[3] = molecular target: Nogo receptor-1 (species and form not stated); experiment: method not given

B1: monoclonal antibody 7E11 (antibody, V domains shown)
VH: VQLQESGAELVMPGASVKMSCKASGYTFTDYWMHWVKQRPGQGLEWIGAIDPSDSYSSYNQNFKGKATLTVDGSSSTAYMQLSSLTSEDSAVYYCARRITEAGAWFAYWGQGTTVT
VL: DVVMTQTPLSLPVSLGDQASISCRSSQSLVHSNGNTYLHWYLQKPGQSPKLLIYKVSNRFSGVPDRFSGSGSGTDFTLKISRVDAEDLGVYFCSQSTHVPFTFGGGTKLEIKR
fold increase of EC50 against the original peptide [1]: 25 fold | fold increase of EC50 against the original peptide [2]: 30 fold | IC50 (sNogoR344-Fc): 400 nM | Kd [3]: 100 nM
